The supplement of paper PMC10065799, “High-throughput profiling of sequence recognition by tyrosine kinases and SH2 domains using bacterial peptide display” (eLife, 2023)

Assays:
SHP2-C SH2 = assay: SH2 binding enrichment of the phosphorylated peptide, bacterial display (enrichment ratio); higher = better substrate or ligand; peptides without Tyr show the background
c-Src SH2 = assay: as above
Grb2 SH2 = Grb2 SH2 (UniProt P62993); assay: as above
Fer (mouse) = assay: phosphorylation enrichment, bacterial display (enrichment ratio); higher = better substrate or ligand; peptides without Tyr show the background
MERTK = MERTK (UniProt Q12866); assay: as above
Chain of MERTK (Q12866 whole entry, looked up): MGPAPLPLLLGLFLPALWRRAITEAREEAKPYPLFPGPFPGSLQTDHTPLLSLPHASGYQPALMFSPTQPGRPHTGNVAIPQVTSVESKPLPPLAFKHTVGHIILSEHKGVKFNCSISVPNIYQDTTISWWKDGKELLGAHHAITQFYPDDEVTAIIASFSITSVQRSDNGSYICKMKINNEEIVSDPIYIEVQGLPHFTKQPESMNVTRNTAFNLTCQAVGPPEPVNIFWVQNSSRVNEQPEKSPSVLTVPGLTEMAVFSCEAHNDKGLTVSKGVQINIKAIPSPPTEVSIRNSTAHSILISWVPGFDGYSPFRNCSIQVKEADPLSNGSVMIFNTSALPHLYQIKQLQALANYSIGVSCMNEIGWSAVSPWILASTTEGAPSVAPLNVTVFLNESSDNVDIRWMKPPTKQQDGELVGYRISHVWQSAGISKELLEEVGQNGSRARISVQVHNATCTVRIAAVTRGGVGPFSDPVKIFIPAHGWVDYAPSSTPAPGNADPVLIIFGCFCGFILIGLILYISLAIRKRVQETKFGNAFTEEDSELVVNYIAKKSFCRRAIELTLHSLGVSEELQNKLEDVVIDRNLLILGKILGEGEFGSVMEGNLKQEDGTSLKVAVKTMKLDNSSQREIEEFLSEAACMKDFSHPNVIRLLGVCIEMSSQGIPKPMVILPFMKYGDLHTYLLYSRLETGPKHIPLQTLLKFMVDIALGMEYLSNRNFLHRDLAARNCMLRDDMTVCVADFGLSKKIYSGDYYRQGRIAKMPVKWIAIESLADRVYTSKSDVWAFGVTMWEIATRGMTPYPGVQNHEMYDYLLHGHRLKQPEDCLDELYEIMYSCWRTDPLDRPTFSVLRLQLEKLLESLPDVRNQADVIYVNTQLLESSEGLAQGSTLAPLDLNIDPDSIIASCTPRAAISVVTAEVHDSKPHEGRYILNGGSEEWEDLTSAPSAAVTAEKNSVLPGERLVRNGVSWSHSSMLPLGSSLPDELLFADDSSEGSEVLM

Hck = Hck (UniProt P08631); assay: as above
Chain of Hck (P08631 whole entry, looked up): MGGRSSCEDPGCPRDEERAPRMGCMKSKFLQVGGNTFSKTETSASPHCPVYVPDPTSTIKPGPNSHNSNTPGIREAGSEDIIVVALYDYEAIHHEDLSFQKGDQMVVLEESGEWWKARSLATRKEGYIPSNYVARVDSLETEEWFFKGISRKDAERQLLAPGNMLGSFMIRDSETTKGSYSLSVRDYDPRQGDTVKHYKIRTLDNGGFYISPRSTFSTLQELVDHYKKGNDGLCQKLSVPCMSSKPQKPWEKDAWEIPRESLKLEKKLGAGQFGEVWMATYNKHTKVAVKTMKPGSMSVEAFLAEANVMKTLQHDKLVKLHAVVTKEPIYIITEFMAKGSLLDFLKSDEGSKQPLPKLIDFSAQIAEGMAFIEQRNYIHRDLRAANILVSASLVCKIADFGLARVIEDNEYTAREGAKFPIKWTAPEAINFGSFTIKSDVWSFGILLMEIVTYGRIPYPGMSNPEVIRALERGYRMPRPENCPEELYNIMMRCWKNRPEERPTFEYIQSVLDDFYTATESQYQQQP

Fes = Fes (UniProt P07332); assay: as above
Chain of Fes (P07332 whole entry, looked up): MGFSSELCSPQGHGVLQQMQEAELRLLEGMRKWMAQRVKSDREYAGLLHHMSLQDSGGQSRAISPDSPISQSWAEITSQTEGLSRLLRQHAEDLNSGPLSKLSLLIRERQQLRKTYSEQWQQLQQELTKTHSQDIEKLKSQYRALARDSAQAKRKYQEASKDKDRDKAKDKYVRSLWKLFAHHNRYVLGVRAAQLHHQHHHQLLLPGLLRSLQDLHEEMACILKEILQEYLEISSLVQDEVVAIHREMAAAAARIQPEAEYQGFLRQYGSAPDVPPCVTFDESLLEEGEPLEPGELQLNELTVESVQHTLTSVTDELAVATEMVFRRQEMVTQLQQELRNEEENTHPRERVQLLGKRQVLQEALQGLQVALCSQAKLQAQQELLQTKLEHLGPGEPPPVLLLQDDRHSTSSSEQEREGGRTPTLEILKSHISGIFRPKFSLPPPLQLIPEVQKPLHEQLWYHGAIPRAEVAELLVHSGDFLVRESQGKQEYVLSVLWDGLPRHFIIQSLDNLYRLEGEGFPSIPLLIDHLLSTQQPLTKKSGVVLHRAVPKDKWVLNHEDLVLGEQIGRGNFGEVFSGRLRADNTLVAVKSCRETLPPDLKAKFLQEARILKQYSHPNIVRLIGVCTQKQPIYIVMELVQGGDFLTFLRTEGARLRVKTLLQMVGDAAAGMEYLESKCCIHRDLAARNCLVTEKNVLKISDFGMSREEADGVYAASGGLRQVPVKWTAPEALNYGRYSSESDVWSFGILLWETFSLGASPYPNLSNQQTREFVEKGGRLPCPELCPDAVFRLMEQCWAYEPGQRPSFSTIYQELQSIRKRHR

Jak2 = Jak2 (UniProt O60674); assay: as above
AncSZ = assay: as above
EPHB1 = EPHB1 (UniProt P54762); assay: as above
Chain of EPHB1 (P54762 whole entry, looked up): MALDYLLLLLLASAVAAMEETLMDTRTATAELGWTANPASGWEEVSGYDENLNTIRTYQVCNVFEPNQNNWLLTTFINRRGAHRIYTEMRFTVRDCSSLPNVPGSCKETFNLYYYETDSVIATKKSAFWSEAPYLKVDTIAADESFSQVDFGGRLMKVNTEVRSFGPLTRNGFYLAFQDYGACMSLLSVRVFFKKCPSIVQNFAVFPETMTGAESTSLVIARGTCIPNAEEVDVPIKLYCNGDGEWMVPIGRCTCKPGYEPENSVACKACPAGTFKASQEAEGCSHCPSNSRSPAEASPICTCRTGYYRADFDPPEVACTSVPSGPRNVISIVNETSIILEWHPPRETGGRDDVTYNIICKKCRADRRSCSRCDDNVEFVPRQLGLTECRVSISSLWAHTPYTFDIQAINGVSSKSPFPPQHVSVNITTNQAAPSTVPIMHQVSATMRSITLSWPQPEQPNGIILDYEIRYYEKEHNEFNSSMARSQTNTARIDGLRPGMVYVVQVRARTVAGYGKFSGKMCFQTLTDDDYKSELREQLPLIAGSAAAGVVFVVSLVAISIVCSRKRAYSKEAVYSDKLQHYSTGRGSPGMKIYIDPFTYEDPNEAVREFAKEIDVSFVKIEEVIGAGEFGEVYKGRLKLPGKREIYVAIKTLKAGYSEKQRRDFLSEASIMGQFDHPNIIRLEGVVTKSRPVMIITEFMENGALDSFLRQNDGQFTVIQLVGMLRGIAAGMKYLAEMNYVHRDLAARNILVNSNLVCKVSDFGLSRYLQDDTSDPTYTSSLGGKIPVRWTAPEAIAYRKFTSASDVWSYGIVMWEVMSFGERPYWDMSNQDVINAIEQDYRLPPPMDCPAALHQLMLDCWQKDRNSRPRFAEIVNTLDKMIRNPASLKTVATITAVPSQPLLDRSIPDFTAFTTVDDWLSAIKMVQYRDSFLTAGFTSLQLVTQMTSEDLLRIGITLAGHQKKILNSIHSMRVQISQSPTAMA

FGFR1 = FGFR1 (UniProt P11362); assay: as above
Chain of FGFR1 (P11362 whole entry, looked up): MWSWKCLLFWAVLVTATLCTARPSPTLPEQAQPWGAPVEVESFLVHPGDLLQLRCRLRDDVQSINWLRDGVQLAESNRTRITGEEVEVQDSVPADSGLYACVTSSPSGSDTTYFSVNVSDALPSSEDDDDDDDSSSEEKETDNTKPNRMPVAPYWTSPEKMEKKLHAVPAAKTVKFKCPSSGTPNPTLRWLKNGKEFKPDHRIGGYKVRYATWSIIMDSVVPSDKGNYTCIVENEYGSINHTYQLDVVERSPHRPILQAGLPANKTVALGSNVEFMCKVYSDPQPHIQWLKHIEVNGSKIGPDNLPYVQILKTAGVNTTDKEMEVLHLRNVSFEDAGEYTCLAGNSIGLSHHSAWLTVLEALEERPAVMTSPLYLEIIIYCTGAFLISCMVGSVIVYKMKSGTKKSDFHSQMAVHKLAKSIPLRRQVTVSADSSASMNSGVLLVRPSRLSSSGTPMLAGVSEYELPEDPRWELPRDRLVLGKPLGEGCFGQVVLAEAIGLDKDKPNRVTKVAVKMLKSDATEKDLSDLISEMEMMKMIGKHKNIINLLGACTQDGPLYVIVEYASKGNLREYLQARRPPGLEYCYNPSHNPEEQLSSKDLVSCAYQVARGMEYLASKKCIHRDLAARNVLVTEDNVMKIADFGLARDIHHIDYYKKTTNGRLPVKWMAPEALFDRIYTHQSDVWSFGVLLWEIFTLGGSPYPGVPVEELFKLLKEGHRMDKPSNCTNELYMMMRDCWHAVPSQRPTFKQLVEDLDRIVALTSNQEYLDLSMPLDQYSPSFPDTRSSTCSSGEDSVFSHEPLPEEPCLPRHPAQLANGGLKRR

Fyn = Fyn (UniProt P06241); assay: as above
c-Abl (mouse) = assay: as above
FGFR3 = FGFR3 (UniProt P22607); assay: as above
Chain of FGFR3 (P22607 whole entry, looked up): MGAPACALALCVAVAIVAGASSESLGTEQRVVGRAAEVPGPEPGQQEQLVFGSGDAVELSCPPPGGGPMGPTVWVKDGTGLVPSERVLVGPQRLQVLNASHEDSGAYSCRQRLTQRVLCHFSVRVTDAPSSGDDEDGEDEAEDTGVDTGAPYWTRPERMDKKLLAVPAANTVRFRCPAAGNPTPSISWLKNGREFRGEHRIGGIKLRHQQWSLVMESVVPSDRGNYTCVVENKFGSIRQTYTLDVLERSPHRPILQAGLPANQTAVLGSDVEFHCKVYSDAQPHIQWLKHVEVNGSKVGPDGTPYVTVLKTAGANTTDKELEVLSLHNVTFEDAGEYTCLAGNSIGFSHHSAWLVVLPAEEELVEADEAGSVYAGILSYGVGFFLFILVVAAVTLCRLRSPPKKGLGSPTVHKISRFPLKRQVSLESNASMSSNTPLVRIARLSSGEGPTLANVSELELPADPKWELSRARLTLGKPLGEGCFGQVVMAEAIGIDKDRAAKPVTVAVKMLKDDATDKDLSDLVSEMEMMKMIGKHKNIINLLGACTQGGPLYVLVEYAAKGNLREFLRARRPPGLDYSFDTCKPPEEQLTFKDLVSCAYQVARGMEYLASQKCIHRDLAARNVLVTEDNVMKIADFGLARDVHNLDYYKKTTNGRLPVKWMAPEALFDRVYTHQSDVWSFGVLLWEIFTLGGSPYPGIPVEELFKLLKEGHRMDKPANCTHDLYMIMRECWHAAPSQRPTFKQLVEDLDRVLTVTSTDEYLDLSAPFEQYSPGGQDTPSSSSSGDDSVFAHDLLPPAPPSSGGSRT

EPHB2 = EPHB2 (UniProt P29323); assay: as above
c-Src = assay: as above
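Throughout, for SH2 binding enrichment of the phosphorylated peptide, bacterial display: peptide library displayed on the E. coli surface as eCPX fusions, selected cells deep-sequenced, score is each peptide's frequency after selection divided by its frequency in the input.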
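Throughout, for phosphorylation enrichment, bacterial display: 11-residue human phosphosite peptides and single-mutation variants displayed on the E. coli surface, counted by deep sequencing, each peptide's frequency after selection divided by its frequency in the unselected input library; frequency after pTyr selection over input frequency; kinase dosed for 20-30% of maximal phosphorylation in three min.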

SH2 binding enrichment (SHP2-C SH2) | SH2 binding enrichment (c-Src SH2) | SH2 binding enrichment (Grb2 SH2) | Sequence | phosphorylation enrichment (Fer (mouse)) | phosphorylation enrichment (MERTK) | phosphorylation enrichment (Hck) | phosphorylation enrichment (Fes) | phosphorylation enrichment (Jak2) | phosphorylation enrichment (AncSZ) | phosphorylation enrichment (EPHB1) | phosphorylation enrichment (FGFR1) | phosphorylation enrichment (Fyn) | phosphorylation enrichment (c-Abl (mouse)) | phosphorylation enrichment (FGFR3) | phosphorylation enrichment (EPHB2) | phosphorylation enrichment (c-Src)
0.799 | 1.48 | 0.551 | PATYTYDEYKK [COL8A2_Y648] | 0.558 | 1.02 | 1.55 | 1.3 | 0.868 | 1.43 | 0.745 | 0.749 | 1.67 | 1.38 | 0.728 | 0.883 | 3.07
0.849 | 0.348 | 0.982 | PDGVEYLKNNP [GRIN3A_Y831_D835N] | 0.499 | 0.546 | 0.664 | 1.05 | 1.31 | 1.21 | 0.527 | 0.503 | 0.543 | 0.748 | 0.769 | 0.452 | 0.539
1.21 | 0.487 | 0.767 | PESIMYWKFTT [NTRK3_Y744_R745W] | 1.53 | 0.851 | 1.96 | 2.81 | 2.76 | 2.52 | 0.92 | 1.09 | 1.85 | 2.36 | 1.55 | 1.22 | 3.1
0.633 | 0.548 | 0.926 | PEVRRCVLPLN [RPE65_Y368_Y368C] | 0.644 | 0.458 | 0.48 | 1.14 | 0.927 | 0.906 | 0.673 | 0.495 | 0.366 | 0.871 | 0.774 | 0.487 | 0.586
0.847 | 0.658 | 1.01 | PFFASYPPSPD [GDAP2_Y491_T489A_YF] | 0.435 | 0.769 | 1.11 | 1.23 | 1.02 | 1.03 | 0.99 | 0.747 | 0.784 | 0.859 | 0.839 | 0.865 | 0.488
0.711 | 0.714 | 0.973 | PFRKLYESVKK [MKI67_Y241_W238R] | 0.458 | 0.612 | 0.563 | 0.695 | 1.16 | 0.931 | 0.516 | 2.28 | 0.454 | 1 | 0.685 | 0.368 | 0.491
0.327 | 0.519 | 0.868 | PFTRNYFVRAV [CYBA_Y87_YF] | 0.408 | 0.544 | 0.595 | 0.967 | 0.93 | 1.04 | 0.413 | 0.788 | 0.533 | 0.868 | 0.739 | 0.708 | 0.419
0.824 | 0.513 | 0.787 | PGPQSYPTVTG [PAX5_Y299_I301T] | 0.63 | 0.707 | 0.582 | 0.888 | 0.892 | 0.819 | 0.79 | 0.811 | 0.828 | 1.06 | 0.539 | 0.725 | 0.594
0.716 | 0.874 | 1.01 | PHMQTYEVDLN [SDHB_Y61] | 1.02 | 0.51 | 0.804 | 1.29 | 1.12 | 1.17 | 0.978 | 0.61 | 0.906 | 0.649 | 0.755 | 0.797 | 1.04
0.769 | 4.62 | 0.877 | PIFEGYALPHA [ACTA1_Y171_YF] | 0.49 | 0.807 | 0.541 | 0.778 | 0.717 | 0.82 | 0.546 | 0.536 | 0.536 | 2.44 | 0.665 | 0.574 | 0.562
1.05 | 0.601 | 1.04 | PINEPYGDDMD [JUP_Y693] | 0.837 | 0.919 | 0.981 | 1.75 | 1.89 | 2.44 | 0.944 | 1.15 | 1.03 | 1.25 | 1.34 | 0.985 | 0.858
1.31 | 0.747 | 0.998 | PKSLFYLLLKL [TRPC6_Y775] | 1.51 | 1.54 | 0.716 | 2.82 | 4.8 | 2.5 | 1.04 | 1.12 | 0.31 | 2.62 | 1.48 | 1.89 | 1.74
0.598 | 0.483 | 0.688 | PLDGEYFTLQV [TP53_Y327_I332V] | 0.842 | 0.494 | 2.74 | 1.94 | 2.16 | 3.87 | 2.21 | 12.8 | 5.07 | 1.02 | 10.6 | 1.44 | 2.09
0.663 | 0.345 | 0.851 | PLFRVYGLESL [INSR_Y94_L89P] | 0.571 | 0.508 | 0.574 | 1.43 | 1.43 | 1.2 | 0.803 | 0.58 | 1.03 | 1.15 | 0.686 | 0.673 | 0.864
0.777 | 1.04 | 1.16 | PLLEYYRDIFT [CDAN1_Y713] | 1.02 | 0.782 | 0.846 | 1.81 | 4.74 | 1.7 | 1.38 | 6.73 | 0.704 | 1.45 | 5.58 | 1.25 | 0.789
1.08 | 0.906 | 1.29 | PLQKIYNFNVL [SLC4A1_Y553_T552I_YF] | 0.795 | 0.811 | 1.12 | 1.44 | 1.19 | 0.985 | 0.743 | 0.793 | 1.43 | 1.06 | 0.684 | 0.84 | 2.63
